From article PMC6713926, “Structural Basis for Properdin Oligomerization and Convertase Stimulation in the Human Complement System” (Frontiers in Immunology, 2019) come the findings set out here.

In test [1] the target is T1, FPhtΔ3, FP head-tail monomer without TSR3 (Homo sapiens, UniProt P27918).
T1 construct: properdin (FP), human, TB-TSR2 (FPhΔ3), made from FPh by a stop codon between TSR2 and TSR3; properdin (FP), human, TSR4-6 tail fragment (FPt); The methods name FPhtΔ3 for the crystals with C3bBbSCIN and hFPNb1, the results FPcΔ3; also called FPcΔ3 (so called in the results for the nanobody complex); FPΔ3
The experiment in a line: crystal structure; C3bBbSCIN-FPhtΔ3-hFPNb1 complex, 6.2 Å; 100 mM NaCl, 5% PEG4000, 10 mM MgCl2, 100 mM sodium cacodylate pH 5.8. The conditions noted are these: both partners purified.

Test [2] has as its target T2, WT FP, recombinant oligomeric properdin (human, UniProt P27918).
T2 construct: properdin (FP), human, wild type; Secreted oligomers; preparations of ~50% dimer and 50% trimer, and of ~90% dimer and 10% trimer, were used; also called oligomeric FP; dimeric FP; source: also in cell supernatant
The experiment in a line: pull-down; 50 μg hFPNb1 added to HEK293F supernatants of WT FP or E244 mutants, captured on Ni-NTA beads, washed with 500 mM NaCl, eluted with 400 mM imidazole. The conditions noted are these: one partner purified.

The target of another test is T3, Biotinylated C3b (human, UniProt P01024 23-667; P01024 749-1663, biotin (Maleimide-PEG2-Biotin)).
T3 construct: complement C3, human, beta chain; complement C3, human, alpha' chain of C3b; also called biotin-C3b; immobilized C3b; source: made from plasma C3 by trypsin cleavage in the presence of Maleimide-PEG2-Biotin, purified by cation exchange
The experiment in a line: BLI; biotinylated C3b on streptavidin sensors; FB variants at 40 μg/mL; 20 mM MES pH 6.0, 100 mM NaCl, 0.05% Tween, 1 mg/mL BSA, 5 mM MgCl2. As to conditions: both partners purified. For orientation: In BLI a coated tip is dipped into the sample, and binding shifts an interference pattern.

T3 sequence (P01024 23-667, chain 1 of 2): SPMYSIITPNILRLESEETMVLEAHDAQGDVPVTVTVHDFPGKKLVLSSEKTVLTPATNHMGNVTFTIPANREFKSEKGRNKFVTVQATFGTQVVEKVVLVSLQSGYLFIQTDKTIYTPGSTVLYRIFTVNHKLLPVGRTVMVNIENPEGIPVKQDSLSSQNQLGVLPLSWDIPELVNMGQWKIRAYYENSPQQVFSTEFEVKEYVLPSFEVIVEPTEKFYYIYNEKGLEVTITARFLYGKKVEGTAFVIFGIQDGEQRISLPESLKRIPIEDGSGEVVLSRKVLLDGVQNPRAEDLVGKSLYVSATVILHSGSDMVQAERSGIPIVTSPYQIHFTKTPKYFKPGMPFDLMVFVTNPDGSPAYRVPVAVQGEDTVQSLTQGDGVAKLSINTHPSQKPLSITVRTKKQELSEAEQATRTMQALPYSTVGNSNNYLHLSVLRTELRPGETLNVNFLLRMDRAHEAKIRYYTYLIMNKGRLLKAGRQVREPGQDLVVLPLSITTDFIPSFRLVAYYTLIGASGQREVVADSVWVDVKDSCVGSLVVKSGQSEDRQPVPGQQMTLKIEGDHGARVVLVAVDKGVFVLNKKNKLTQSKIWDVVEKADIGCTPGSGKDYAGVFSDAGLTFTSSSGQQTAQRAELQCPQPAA
T3 sequence (P01024 749-1663, chain 2 of 2): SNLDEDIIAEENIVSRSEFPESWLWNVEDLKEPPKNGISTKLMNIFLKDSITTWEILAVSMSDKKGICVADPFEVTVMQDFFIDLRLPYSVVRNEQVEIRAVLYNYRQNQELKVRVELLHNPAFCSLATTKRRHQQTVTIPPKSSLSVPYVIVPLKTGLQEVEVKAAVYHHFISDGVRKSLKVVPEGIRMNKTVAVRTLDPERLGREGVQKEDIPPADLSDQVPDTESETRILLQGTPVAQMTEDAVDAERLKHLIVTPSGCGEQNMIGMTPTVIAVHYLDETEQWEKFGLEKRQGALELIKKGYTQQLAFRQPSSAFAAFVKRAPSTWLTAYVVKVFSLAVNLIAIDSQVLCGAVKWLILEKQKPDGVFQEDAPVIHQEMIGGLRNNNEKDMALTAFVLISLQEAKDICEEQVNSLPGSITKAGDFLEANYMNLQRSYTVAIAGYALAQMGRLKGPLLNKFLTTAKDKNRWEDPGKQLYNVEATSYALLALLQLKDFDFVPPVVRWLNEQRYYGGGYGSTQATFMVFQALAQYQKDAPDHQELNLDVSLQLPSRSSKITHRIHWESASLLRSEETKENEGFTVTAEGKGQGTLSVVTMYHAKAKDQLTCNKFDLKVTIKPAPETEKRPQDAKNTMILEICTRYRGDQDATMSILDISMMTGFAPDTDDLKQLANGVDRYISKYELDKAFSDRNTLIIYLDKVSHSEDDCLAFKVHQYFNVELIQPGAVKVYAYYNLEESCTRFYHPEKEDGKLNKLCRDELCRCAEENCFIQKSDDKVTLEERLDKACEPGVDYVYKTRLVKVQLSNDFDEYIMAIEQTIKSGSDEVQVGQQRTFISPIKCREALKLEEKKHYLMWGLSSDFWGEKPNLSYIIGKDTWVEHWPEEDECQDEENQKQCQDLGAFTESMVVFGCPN
T2 sequence (P27918 28-469): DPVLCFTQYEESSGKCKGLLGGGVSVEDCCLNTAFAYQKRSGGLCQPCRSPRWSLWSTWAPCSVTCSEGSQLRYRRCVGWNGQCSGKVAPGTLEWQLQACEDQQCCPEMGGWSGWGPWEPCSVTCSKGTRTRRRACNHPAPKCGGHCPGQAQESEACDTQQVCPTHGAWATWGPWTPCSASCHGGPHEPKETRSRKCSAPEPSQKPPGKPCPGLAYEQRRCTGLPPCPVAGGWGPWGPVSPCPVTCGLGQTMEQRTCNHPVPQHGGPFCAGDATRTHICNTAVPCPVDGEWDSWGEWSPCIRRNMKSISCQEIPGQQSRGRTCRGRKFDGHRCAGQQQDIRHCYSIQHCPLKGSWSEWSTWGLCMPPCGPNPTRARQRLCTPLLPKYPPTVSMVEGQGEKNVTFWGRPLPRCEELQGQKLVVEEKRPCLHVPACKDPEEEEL
T1 sequence (P27918 whole entry, looked up, stated change not applied, the tested form may be a part): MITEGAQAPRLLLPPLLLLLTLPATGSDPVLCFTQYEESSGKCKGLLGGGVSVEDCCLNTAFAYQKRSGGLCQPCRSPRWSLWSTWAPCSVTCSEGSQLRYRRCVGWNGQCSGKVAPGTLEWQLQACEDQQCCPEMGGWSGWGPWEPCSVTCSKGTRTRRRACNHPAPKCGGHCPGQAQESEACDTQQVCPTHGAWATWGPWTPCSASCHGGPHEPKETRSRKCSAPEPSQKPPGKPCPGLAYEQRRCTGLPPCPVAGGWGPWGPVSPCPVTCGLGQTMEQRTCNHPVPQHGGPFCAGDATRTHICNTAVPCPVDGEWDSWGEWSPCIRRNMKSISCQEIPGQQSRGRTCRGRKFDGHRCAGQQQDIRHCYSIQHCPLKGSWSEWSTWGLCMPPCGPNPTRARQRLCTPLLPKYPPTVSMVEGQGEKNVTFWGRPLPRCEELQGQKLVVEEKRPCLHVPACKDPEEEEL

B1: hFPNb1, FP specific non-inhibitory nanobody (VHH)
VHH: QVQLVESGGGLVQAGGSLRLSCAASERTFTIYAMGWFRQAPGKEREFVAAISRSGENTDYADSVKGRFTISRDNNKNTISLQMNSLKPEDTAVYYCAAGRAILVHTTKKEYDHWGQGTQVTVSS
notes: llama nanobody selected by phage display against FPc
B1: the binding result in test [1] and in test [2] was “binds” in each case.

B2: Recombinant FB D279G, S699A, K348A, L349A, K350A (enzyme, human, UniProt P00751 26-764, looked up)
chain: TPWSLARPQGSCSLEGVEIKGGSFRLLQEGQALEYVCPSGFYPYPVQTRTCRSTGSWSTLKTQDQKTVRKAECRAIHCPRPHDFENGEYWPRSPYYNVSDEISFHCYDGYTLRGSANRTCQVNGRWSGQTAICDNGAGYCSNPGIPIGTRKVGSQYRLEDSVTYHCSRGLTLRGSQRRTCQEGGSWSGTEPSCQDSFMYDTPQEVAEAFLSSLTETIEGVDAEDGHGPGEQQKRKIVLDPSGSMNIYLVLDGSGSIGASNFTGAKKCLVNLIEKVASYGVKPRYGLVTYATYPKIWVKVSEADSSNADWVTKQLNEINYEDHAAASGTNTKKALQAVYSMMSWPDDVPPEGWNRTRHVIILMTDGLHNMGGDPITVIDEIRDLLYIGKDRKNPREDYLDVYVFGVGPLVNQVNINALASKKDNEQHVFKVKDMENLEDVFYQMIDESQSLSLCGMVWEHRKGTDYHKQPWQAKISVIRPSKGHESCMGAVVSEYFVLTAAHCFTVDDKEHSIKVSVGGEKRDLEIEVVLFHPNYNINGKKEAGIPEFYDYDVALIKLKNKLKYGQTIRPICLPCTEGTTRALRLPPTTTCQQQKEELLPAQDIKALFVSEEEKKLTRKEVYIKNGDKKGSCERDAQYAPGYDKVKDISEVVTPRFLCTGGVSPYADPNTCRGDAGGPLIVHKRSRFIQVGVISWGVVDVCKNQKRQKQVPAHARDFHINLFQVLPWLKEKLQDEDLGFL
notes: complement factor B (FB), human; also called FB AAA; 348-AAA-350
Consider B2, for which the binding result with Biotinylated C3b was “binds”.
